Data set [1] deals with Cytochrome p450 1A1 (CYP1A1). Nature of the data set: Aryl hydrocarbon hydroxylase (AHH) assay. To be noted: cells treated with 9 μM BaP. As for the experimental part:
• 1.1 Cell lines and culture. Two HCC cell lines-Huh 7 (13) and HA22TNGH (14)—and one human hepatoblastoma cell line-Hep G2 (15)—were used in this study. Cells were cultured in Dulbecco's modified Eagle's medium (DMEM, GIBCO BRL, Grand Island, N.Y.) with 10% heat-inactivated fetal bovine serum (HyClone, Logan, Utah), penicillin (100 IU/ml), streptomycin (100 μg/ml), nonessential amino acids (0.1 mM), fungizone ([…]) and L-glutamine (2 mM) in a humidified incubator with 5% CO2. • 1.2 Construction of pGNMT, pGNMT-antisense and pGNMT-His-short plasmids. To construct plasmid-pGNMT containing the CMV promoter and GNMT cDNA fragment, we used plasmid-pFLAG-CMV-5 (Kodak, Rochester, N.Y.) as a vector and the pBluescript-GNMT-9-1-2 phagemid (8) as the PCR template for generating the insert. A 0.9 kb DNA fragment containing the GNMT cDNA sequence and restriction enzyme sites on both ends was amplified. All PCR conditions were as recommended by the manufacturer (Perkin Elmer, Norwalk, Conn.) with two exceptions: 2 mM of MgCl2 and 150 nM of primer. Twenty amplification cycles were performed using Perkin Elmer's Amplitaq Gold Taq DNA polymerase with DNA Thermal Cycler. […] RP concentration was measured with a BCA protein assay (Pierce, Rockford, Ill.); purity was tested by running samples on a 12.5% SDS-polyacrylamide mini-gel (Bio-Rad Laboratories, Richmond, Calif.). • 1.4 Transfection. […]

For another data set, the system named is CYP1A1 gene. Particulars: following BaP treatment; preliminary data.
In the next data set the test system is lung tumors. The data set is classed as in vivo. Particulars: GNMT-overexpressing transgenic mice, 375 μg B(a)P/7g body weight everyday IP for 15 days, sacrificed 78 weeks after the challenge. On the procedure:
• 1.1 pPEPCKex-flGNMT Plasmid Construction: pPEPCKex-flGNMT plasmid was prepared by using a pPEPCKex vector (concluding with phosphoenolpyruvate carboxykinase promoter (PEPCK, Valera et al., 1994), specific expressed in liver and kidney) and pSK-flGNMT (concluding with full length human GNMT cDNA) plasmid. Both plasmids were digested with Not I and Xho I. Insert was ligated to the vector and transformation into the competent cell (JM109). The clones were selected with ampicillin and screened with PCR to check pPEPCKex-flGNMT plasmid (FIG. 1). • 1.2 Production of Transgenic Mice: pPEPCKex-flGNMT plasmid was amplified and digested with Asc I to linear form (4.3 Kb). The linear form pPEPCKex-flGNMT gene was sent into FVB stain mice 0.5 days embryo by pronuclei microinjection. The embryos were sent into the foster mother (ICR strain mice). After 18-21 days, the mice were bred and screened with PCR to check the transgenic mice. • 1.3 Expression human GNMT in liver and kidney of transgenic mice: To check the PEPCK promoter specific expression organ, we used northern blot (FIG. 2) and western blot (FIG. 3). The human GNMT was specific expression in liver and kidney. […]

Take “GNMT: Glycine N-methyltransferase (EC2.1.1.20), SEQ ID No: 1, SAM-dependent methyltransferase binding benzo(a)pyrene”: the “reduction in CYP1A1 enzyme activity in GNMT-expressing cells (SCG2-1-1) compared to SCG2-neg cells” value in data set [1] amounted to 45%. Moreover, the “reduction of CYP1A1 gene expression in SCG2-1-1 cells compared to Hep G2 cells” value with CYP1A1 gene is listed as “approximately 20%”. For the same substance, the “mice that generated lung tumors” value in the data set with lung tumors amounted to 30%.

The values are drawn from US20090232787A1, “CARCINOGEN DETOXIFICATION COMPOSITION AND METHOD” (Gene Research Lab. Co., Ltd., priority 2004, published 2009).
